Consider 13 molecules from patent US11702666B2, “Cell-based assay for determining activity in the retinoblastoma pathway” (Medical Diagnostic Laboratories, LLC, priority 2017, dated 2023).

For experiment [1], the target named is T1, CDK6 (Homo sapiens, UniProt Q00534, R31C).
T1 construct: expressed in transfected cells; host or cells: HEK293 CDK4/CDK6 double-knockout cells stably expressing E2F1-Dp-1-LB (clone #11); early experiments in plain HEK293
Kind of experiment: p16 activity assay with CDK6 (NanoBiT, cell line #11). In kind it is cell-based. The following applies: compared to WT CDK6. An excerpt:
(§1) We developed an assay that could measure the interaction between Rb, E2F1 and Dp-1. When the Rb and E2F1 proteins are in close proximity or in complex, a light signal is observed. For the purpose of the assay, split-luciferase complementation was used to measure the interaction between Rb and E2F1, which served as a surrogate measure of CDK4/6 activity and the ability of CDK4/6 to respond to the natural inhibitor p16. The NanoBiT assay system by Promega (Madison, Wis.; Dixon et al., 2015, ACS ChemBiol) was used in the split luciferase complementation design. FIG. 24 depicts a design of a signal system to measure p16 activity. Under basal conditions inside the cell, Rb is active and interacts with the E2F1/Dp-1 heterodimer. However, in the presence of the CDK4 or CDK6, Rb gets phosphorylated and released from the interacting complex. In the presence of the natural inhibitor p16, CDK4/6 is no longer available to phosphorylate Rb and thus promoting the Rb/E2F1-Dp-1 complex formation.
(§2) For the purpose of the current assay, the stable cell line #11 that we generated for the CDK activity assay was used and described above. HEK293 CDK DKO cells containing E2F1-Dp-1-LB was transiently transfected with CDK4/CDK6, CyclinD1, and SB-Rb. The transfected cells were then exposed to the natural inhibitor p16 (FIG. 25). […]

Experiment [2] has as its system Rb/E2F1-Dp-1 complex. Nature of the experiment: CDK6 mutant activity / drug resistance in NanoBiT assay, stable cell line #11. The following applies: CDK6 mutants. The class given is cell-based, human. The protocol: (§3) A linear expression cassette of mutated CDK4 or CDK6 was generated by PCR mediated overlapping extension method. A pair of forward and reverse primers containing the targeted mutations was designed. The mutated codon was located in the middle of a primer flanked by 18-21 nucleotides on each side. Two PCRs (named as PCR #1 and PCR #2 in FIG. 1) were performed using UF-CMV forward and mutated reverse primers, or mutated forward and BGH-UR primers. The PCR products were cleaned up by ExoSAP-IT® (Affymetrix) to remove unconsumed dNTPs and primers. The treated PCR products were mixed together followed by dilution with water. A second round of PCR was performed using the diluted PCR mixture, and the UF and UR primers (FIG. 1). The amplified products were gel-purified. The DNA concentration was quantitated by the optical density at 260 nm using Nanodrop. The targeted mutations were incorporated in the CDK4 or CDK6 genes during the PCR mediated overlapping extension method. The introduced mutations were confirmed by the DNA sequencing.
(§4) To examine the ability of the assay to detect variants in CDK4 or CDK6 that affect function, kinase dead mutants and COSMIC (Catalogue Of Somatic Mutations in cancer) unknown mutants were created. For comparison, hyperactive CDK4 or CDK6 mutants known to be hyperactive due to less binding to natural inhibitor p16 were also created. The mutations in CDK4 or CDK6 were created by site-directed mutagenesis. WT or mutated CDK4 or CDK6 along with the CyclinD1 and SB-Rb were co-transfected, under similar conditions as previously indicated (see FIG. 9).
(§5) Computer modeling was used to reveal the drug-binding pocket and predict drug-resistant mutants. The mutations in CDK4 and CDK6 were created by site-directed mutagenesis. WT or mutated CDK4 or CDK6 along with the CyclinD1 and SB-Rb was co-transfected into #11 cell line, under the same conditions as previously indicated. […] Dose response curves are presented on FIG. 13A and FIG. 13B. Activity of other mutants was very similar to the WT or KD.
(§6) CDK4 and CDK6 mutants with known function and unknown function taken from the COSMIC database were analyzed in the present assay and are summarized in Table 7A and Table 7B. The mutants were classified according to their activity. Table 7A and Table 7B also show the number of counts per mutant in the COSMIC database, type of cancer, and luciferase activity compared to the WT (being 100%).

Experiment [3] deals with Rb/E2F1-Dp-1 complex. The following applies: CDK6 mutants, literature ref.; Hyper = hyperactive, KD = kinase dead; cited from earlier work.
For experiment [4], the target named is T2, CDK4 (Homo sapiens, UniProt P11802).
T2 construct: expressed in transfected cells; host or cells: HEK293 CDK4/CDK6 double-knockout cells stably expressing E2F1-Dp-1-LB (clone #11); early experiments in plain HEK293
T2 sequence (P11802 2-303): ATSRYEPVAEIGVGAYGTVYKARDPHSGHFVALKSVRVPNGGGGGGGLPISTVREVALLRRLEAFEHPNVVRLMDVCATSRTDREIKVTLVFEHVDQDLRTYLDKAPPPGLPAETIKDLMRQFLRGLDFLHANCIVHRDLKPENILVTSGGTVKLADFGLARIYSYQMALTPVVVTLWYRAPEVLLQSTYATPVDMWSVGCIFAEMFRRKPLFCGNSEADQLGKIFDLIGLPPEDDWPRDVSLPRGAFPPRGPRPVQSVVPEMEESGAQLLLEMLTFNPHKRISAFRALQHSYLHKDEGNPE
Kind of experiment: p16 activity assay with CDK4 (NanoBiT, cell line #11). In kind it is cell-based. Particulars: for signal of p16 mutant (in words): loss of function mutants; for Observed function: p16 (CDKN2A) mutants, with CDK4.
Text: as §1
(§7) For the purpose of the current assay, the stable cell line #11 that we generated for the CDK activity assay was used and described above. HEK293 CDK DKO cells containing E2F1-Dp-1-LB was transiently transfected with CDK4/CDK6, CyclinD1, and SB-Rb. The transfected cells were then exposed to the natural inhibitor p16 (FIG. 25). When CDK4 or CDK6 is present, a decrease in activity was observed as Rb gets phosphorylated resulting in no Rb/E2F1-Dp-1 interaction. […] The data presented was a sample experiment where each condition was performed in triplicate and represented mean+SD.
(§8) The conditions of the assay were optimized by using different p16 amounts and cell numbers (FIGS. 25A and 25B). Based on the data generated, it was decided that using 0.2×10^6 cells/ml and 10 ng of p16 would be preferable.
(§9) To examine the ability of the assay to detect variants in CDKN2A that affect function, known loss of function mutants and unknown COSMIC mutants were created. Wild-type or mutated CDKN2A were prepared in a manner similar to that previously indicated. […] Therefore the p16 activity assay is capable of determining the relative activity level of p16 mutants. The data provided is in Luminescence (RLU) of a single experiment with each condition performed in triplicate and represent average+SD. Summary Table 13 reports p16 mutants tested.
(§10) In addition to check functional state of p16 mutants, p16 activity assay can be used to look at p16 inhibition response of different CDK4 and CDK6 mutants. Different response of WT CDK4 and CDK6 and hyperactive mutants of CDK4 (R24A) and CDK6 (R31C) is shown on FIG. 28. […] The p16 activity assay is so sensitive and specific that hyperactive CDK4 and CDK6 mutants can show different response to mutant p16.

Experiment [5] concerns the target T3, CDK6 (Homo sapiens, UniProt Q00534).
T3 construct: expressed in transfected cells; host or cells: HEK293 CDK4/CDK6 double-knockout cells stably expressing E2F1-Dp-1-LB (clone #11); early experiments in plain HEK293
Nature of the experiment: p16 activity assay with CDK6 (NanoBiT, cell line #11). The class given is cell-based. The following applies: CDK6, CyclinD1, SB-Rb transfected cell line #11.
Text: as §1, §2

For experiment [6], the target named is T4, CDK4 (Homo sapiens, UniProt P11802, R24A).
T4 construct: expressed in transfected cells; host or cells: HEK293 CDK4/CDK6 double-knockout cells stably expressing E2F1-Dp-1-LB (clone #11); early experiments in plain HEK293
Nature of the experiment: p16 activity assay with CDK4 (NanoBiT, cell line #11). In kind it is cell-based. The following applies: compared to WT CDK4.
Text: as §1, §7, §8, §9, §10

In experiment [7] the test system is Rb/E2F1-Dp-1 complex. The following applies: CDK4 mutants, literature ref.; Hyper = hyperactive, KD = kinase dead; cited from earlier work.
For experiment [8], the system named is Rb/E2F1-Dp-1 complex. Kind of experiment: CDK4 mutant activity / drug resistance in NanoBiT assay, stable cell line #11. The class given is cell-based, human. The following applies: CDK4 mutants, compared to the WT (being 100%). The protocol: as §3, §4
To examine the specificity of the assay, particular CDK4 kinase dead mutants were created. Modifications to D158 were made by changing aspartate to nonpolar alanine (D158A) or positively charged arginine (D158R). […] The mutations in CDK4 were created by site-directed mutagenesis. WT or mutated CDK4 along with the CyclinD1 and SB-Rb was co-transfected into the #11 cell line, under the same conditions as previously indicated. […] Kinase dead mutants have the high signal due to inability to phosphorylate Rb.
as §5, §6

Experiment [9] deals with CDK4. Particulars: p16 (CDKN2A) mutants; cited from earlier work.

Substitutions are numbered along the chain they refer to. Numbers in names are those of the source. Where two headings read alike, the source gives them in different places.

T1 sequence (Q00534 whole entry R31C): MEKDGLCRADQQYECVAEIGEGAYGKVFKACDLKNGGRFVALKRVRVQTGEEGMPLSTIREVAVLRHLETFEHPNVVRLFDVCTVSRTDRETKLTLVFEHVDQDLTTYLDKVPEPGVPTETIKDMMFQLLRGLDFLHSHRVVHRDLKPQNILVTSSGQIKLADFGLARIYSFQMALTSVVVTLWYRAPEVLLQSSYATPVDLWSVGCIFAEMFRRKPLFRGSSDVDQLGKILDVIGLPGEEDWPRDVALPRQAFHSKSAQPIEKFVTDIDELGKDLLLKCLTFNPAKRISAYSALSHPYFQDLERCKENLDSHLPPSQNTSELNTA
T3 sequence (Q00534 whole entry): as the sequence (Q00534 whole entry R31C) above, with C31R counted along it

As to “CDK6 R31C: CDK6 mutant, literature hyperactive”, the “p16 inhibition response of hyperactive CDK6 mutant (luminescence)” value in experiment [1] is listed as “decreased level of luminescence”. The “Luc activity (/wt)” value in [2] (compared to the WT (being 100%)) came out at 66%. In addition, in experiment [2] (no drug), the “luciferase signal compared to WT CDK6 (in words)” value is on record as “a little bit lower basal signal than WT”. In experiment [3], the Reported activity entry was “Hyper”.
For “p16: cyclin-dependent kinase inhibitor 2A, natural inhibitor of CDK4 and CDK6, encoded by CDKN2A”, the “luminescence with treatment of p16” value in [4] (CDK4, CyclinD1, SB-Rb transfected cell line #11) was “increase in luminescence”; in [5], “increase in luminescence”.

B1: CDK4 R24A: CDK4 mutant, literature hyperactive (protein)
chain: ATSRYEPVAEIGVGAYGTVYKAADPHSGHFVALKSVRVPNGGGGGGGLPISTVREVALLRRLEAFEHPNVVRLMDVCATSRTDREIKVTLVFEHVDQDLRTYLDKAPPPGLPAETIKDLMRQFLRGLDFLHANCIVHRDLKPENILVTSGGTVKLADFGLARIYSYQMALTPVVVTLWYRAPEVLLQSTYATPVDMWSVGCIFAEMFRRKPLFCGNSEADQLGKIFDLIGLPPEDDWPRDVSLPRGAFPPRGPRPVQSVVPEMEESGAQLLLEMLTFNPHKRISAFRALQHSYLHKDEGNPE
On to B1, for which, in [6], the “p16 inhibition response of hyperactive CDK4 mutant (luminescence)” value was “decreased level of luminescence”. In addition, in experiment [7], the Reported activity entry is recorded as “Hyper”. Moreover, the “Luc. activity (/wt)” value in [8] was 79%.

B2: CDK4 K22A: CDK4 mutant, literature hyperactive (protein, UniProt P11802 2-303, looked up, variant K22A)
Cyclin-dependent kinase 4: B1 chain with K21A, A23R
As to B2, the Reported activity entry in experiment [7] is reported as “Hyper”. Besides, the “Luc. activity (/wt)” value in [8] amounted to 67.5%.

B3: p16 H83Y: p16 (CDKN2A) mutant (protein)
chain: MEPAAGSSMEPSADWLATAAARGRVEEVRALLEAGALPNAPNSYGRRPIQVMMMGSARVAELLLLHGAEPNCADPATLTRPVYDAAREGFLDTLVVLHRAGARLDVRDAWGRLPVDLAEELGHRDVARYLRAAAGGTRGSNHARIDAAEGPSDIPD
B3: the “signal of p16 mutant (in words)” value in experiment [4] is reported as “close to the baseline”.

B4: p16 G101W: p16 (CDKN2A) mutant (protein)
chain: B3 chain with Y83H, G101W
As to B4, the Observed function entry in experiment [4] was “Reduced”.

B5: p16 R144C: p16 (CDKN2A) mutant (protein)
chain: B3 chain with Y83H, R144C
In the case of B5, in [4], the Observed function result is “Normal”. Further, the Literature reported function result in experiment [9] is recorded as “Normal”.

B6: p16 D108N: p16 (CDKN2A) mutant (protein)
chain: B3 chain with Y83H, D108N
For B6, in experiment [4], the Observed function result is recorded as “Normal”.

B7: p16 S56N: p16 (CDKN2A) mutant (protein)
chain: B3 chain with S56N, Y83H
With B7, in experiment [4], the Observed function result was “Normal”.

B8: p16 D14G: p16 (CDKN2A) mutant (protein)
chain: B3 chain with D14G, Y83H
In the case of B8, the Observed function result in experiment [4] was “Normal”.

B9: p16 A148T: p16 (CDKN2A) mutant (protein)
chain: B3 chain with Y83H, A148T
For the molecule B9, the Observed function result in [4] is given as “Normal”. Further, in [9], the Literature reported function result is reported as “Normal”.

B10: p16 A36G: p16 (CDKN2A) mutant (protein)
chain: B3 chain with A36G, Y83H
For the molecule B10, the Observed function entry in experiment [4] is on record as “Normal”.

B11: p16 P114L: p16 (CDKN2A) mutant (protein)
chain: B3 chain with Y83H, P114L
As to B11, in [4], the “signal of p16 mutant (in words)” value was “close to the baseline”.
